Measured values from US20230272055A1 (Incyte, published 2023).
Numbering of substitutions follows the chain as printed.

B1: anti-mutCALR antibody clone 41 (antibody, human IgG1, lambda, V domains shown)
VH: EVQLVQSGAEVKKPGASVKVSCKVSGYTLTELSMHWVRQAPGKGLEWMGLVDPEDGETIYAQKFQGRVTMTEDTSTDTAYMELSSLRSEDTAVYYCAREEWSGDGDDAFDIWGQGTMVTVSS
VL: QSVLTQPPSVSAAPGQKVTISCSGSSSNIGSYSVSWYQQLPGTAPKLLIYDNNKRPSGIPDRFSGSNSGTSATLGITGLQTGDEADYYCGTWDSSLSAWVFGGGTKLTVLG
notes: human IgG1
B2: anti-mutCALR antibody clone 42 (antibody, human IgG1, lambda, V domains shown)
VH: B1 VH
VL: B1 VL with N52D, G75S
notes: human IgG1
B3: anti-mutCALR antibody clone 1 (antibody, human IgG1, lambda, V domains shown)
VH: EVQLVQSGAEVKKPGASVKVSCKVSGYTLTELSMQWVRQAPGKGLEWMGGFDPDDGETMYAEKFQGRLTVTEDTSTDTVYMELRSLTSEDTALYFCATSPGYDFFDYWGQGTLVTVSS
VL: SYVLTQPPSVSVAPGKTARITCGGNYIGSKSVHWYQQKPGQAPVLVVYDDGDRPSGIPARFSGSNSGNTATLTISRVEAGDEADYYCQVWDSISDHVVFGGGTKLTVLG
notes: human IgG1
B4: anti-mutCALR antibody clone 3 (antibody, human IgG1, lambda, V domains shown)
VH: B3 VH with K63R
VL: B3 VL with K16Q, Y26N, G51S, A59E, S75N, I93S, S94N, H96L, V97L, V98I
notes: human IgG1
B5: anti-mutCALR antibody clone 10 (antibody, human IgG1, lambda, V domains shown)
VH: B3 VH
VL: SYELTQPPSVSVAPGQTARIPCGGNNIGSEGVHWYQQKPGQAPVLVVYDDSDRPSGIPERFSGSNSGNTATLTISRVEAGDEADYYCQVWDSSNDLLIFGGGTKLTVLG
notes: human IgG1
B6: anti-mutCALR antibody clone 20 (antibody, human IgG1, lambda, V domains shown)
VH: B3 VH
VL: B5 VL with E3V, Q16K, P21T, E30K, S75N
notes: human IgG1
B7: anti-mutCALR antibody clone 24 (antibody, human IgG1, lambda, V domains shown)
VH: B3 VH with F64L
VL: B5 VL with E3V, Q16K, P21T, E30K, G31S, S75N
notes: human IgG1
B8: anti-mutCALR antibody clone 4 (antibody, human IgG1, lambda, V domains shown)
VH: B3 VH
VL: B5 VL with E3V, P21T, E30K, G31S, S75N
notes: human IgG1
B9: anti-mutCALR antibody clone 12 (antibody, human IgG1, lambda, V domains shown)
VH: B3 VH with D55G
VL: B5 VL with E3V, I20V, P21S, E30K, G31S, H33N, Q36R, V47I, S75N
notes: human IgG1
B10: anti-mutCALR antibody clone 27 (antibody, human IgG1, lambda, V domains shown)
VH: B3 VH
VL: B5 VL with E3V, P21T, S29I, E30K, G31S, S51R, S75N
notes: human IgG1
B11: anti-mutCALR antibody clone 13 (antibody, human IgG1, lambda, V domains shown)
VH: B3 VH with E1Q
VL: not shown
notes: human IgG1
B12: anti-mutCALR antibody clone 2 (antibody, human IgG1, lambda, V domains shown)
VH: B3 VH
VL: B5 VL with Q16K, P21T, N25D, E30K, G31S, N94I, L96H, L105V
notes: human IgG1
B13: anti-mutCALR antibody clone 18 (antibody, human IgG1, lambda, V domains shown)
VH: B3 VH
VL: B5 VL with E3V, Q16K, P21T, E30K, G31S, S55L, S75N
notes: human IgG1
B14: anti-mutCALR antibody clone 28 (antibody, human IgG1, lambda, V domains shown)
VH: B3 VH
VL: B5 VL with P21T, E30K, G31S, S92A, S93D, N94S, L96Q
notes: human IgG1
B15: anti-mutCALR antibody clone 23 (antibody, human IgG1, lambda, V domains shown)
VH: B3 VH
VL: B5 VL with E3V, P21T, S29I, E30K, G31S, S75N
notes: human IgG1
B16: anti-mutCALR antibody clone 16 (antibody, human IgG1, lambda, V domains shown)
VH: B3 VH
VL: B5 VL with E3V, Q16K, P21T, I27T, E30K, G31S, S75N
notes: human IgG1
B17: anti-mutCALR antibody clone 26 (antibody, human IgG1, lambda, V domains shown)
VH: B3 VH
VL: B5 VL with E3V, P21T, E30K, G31S, N94I, L96H, L105V
notes: human IgG1
B18: anti-mutCALR antibody clone 29 (antibody, human IgG1, lambda, V domains shown)
VH: B3 VH
VL: B5 VL with E3V, Q16K, P21T, E30K, G31S, N94S, T103A
notes: human IgG1
B19: anti-mutCALR antibody clone 5 (antibody, human IgG1, lambda, V domains shown)
VH: B3 VH
VL: SYVLTQPPSVSVAPGQTASITCVGTNFGSKNVHWYQQRPGQAPVLVVYDDSDRPSGIPERFSGSNSGNTATLTISRVEAGDEADYYCQVWDSSSDHLIFGGGTKLTVLG
notes: human IgG1
B20: anti-mutCALR antibody clone 9 (antibody, human IgG1, lambda, V domains shown)
VH: B3 VH
VL: B5 VL with E3V, E30K, G31S, S51R, S75N
notes: human IgG1
B21: anti-mutCALR antibody clone 7 (antibody, human IgG1, lambda, V domains shown)
VH: B3 VH
VL: B19 VL with S75N, S94N, H96L
notes: human IgG1
B22: anti-mutCALR antibody clone 22 (antibody, human IgG1, lambda, V domains shown)
VH: B3 VH
VL: B5 VL with E3V, Q16K, P21T, E30K, G31N, S75N
notes: human IgG1
B23: anti-mutCALR antibody clone 19 (antibody, human IgG1, lambda, V domains shown)
VH: B3 VH with S75P
VL: B5 VL with E3V, P8L, P14L, P21T, N25S, S29D, E30I, G31R, S75N
notes: human IgG1
B24: anti-mutCALR antibody clone 8 (antibody, human IgG1, lambda, V domains shown)
VH: B3 VH with E1Q, A16S
VL: B5 VL with P21T, E30K, G31S, N68R, Y86H, N94S, L96H, I98V
notes: human IgG1
B25: anti-mutCALR antibody clone 21 (antibody, human IgG1, lambda, V domains shown)
VH: B3 VH with K23E
VL: B5 VL with E3V, I20V, P21S, E30K, G31S, H33N, Q36R, V47I
notes: human IgG1
B26: anti-mutCALR antibody clone 25 (antibody, human IgG1, lambda, V domains shown)
VH: B3 VH
VL: B5 VL with S11A, P21T, S29R, E30K, G31A, S75N
notes: human IgG1

Target: T1, Recombinant MBP-mutCALR Type 1 fusion protein (human)
T1 construct: custom made at Cepter; also called recombinant mutCALR protein
Assay: SPR, IgG captured, 1:1 fit, Exp. 1
Method: Experiment 1: Recombinant MBP-mutCALR Type 1 fusion protein was custom made at Cepter (cepterbiopartners.com). Data for the interaction of antibodies with recombinant MBP-mutCALR Type 1 fusion protein were collected at 25° C. on a Biacore 8K instrument (Cytiva, Marlborough, Mass.), and all reagents were obtained from Cytiva unless otherwise specified. The experiments were conducted using Tris-buffered saline (pH 7.2), 0.005% Surfactant P20, 1 mM CaCl₂) as running buffer. To prepare the capture surfaces, anti-human IgG (Fc) antibodies (Product #29234600) was amine-coupled onto a CM4 chip (Product #BR100534) under standard conditions using an Amine Coupling Kit (Product #BR100050). […] The kinetics parameters were obtained by applying 1:1 binding model to fit the data from multiple-cycle injection experiments using Biacore Insight Evaluation software.

Binder	Kd [nM]	koff [s⁻¹]	kon [M⁻¹ s⁻¹]
B1	4.88	0.00811	1.66e+06
B2	6.97	0.00452	649000
B3	14.2	0.0196	1.38e+06
B4	3.45	0.00716	2.08e+06
B5	1.38	0.00292	2.11e+06
B6	4.46	0.00498	1.12e+06
B7	7.62	0.00199	261000
B8	4.33	0.00704	1.63e+06
B9	4.08	0.0024	589000
B10	9.63	0.00366	380000
B11	10.1	0.0301	2.99e+06
B12	7.58	0.0123	1.63e+06
B13	2.66	0.00628	2.37e+06
B14	19.5	0.00897	460000
B15	4.37	0.00343	785000
B16	12.5	0.0354	2.84e+06
B17	9.84	0.00471	478000
B18	8.16	0.00561	688000
B19	4.33	0.00405	935000
B20	2.99	0.00904	3.02e+06
B21	3.83	0.00609	1.59e+06
B22	12.6	0.00289	229000
B23	9.04	0.0132	1.46e+06
B24	4.58	0.00802	1.75e+06
B25	2.58	0.00664	2.57e+06
B26	6.64	0.00389	585000
